These results are taken from patent US20060241039A1.

The assay concerns the target FVa light chain (FVaL) derived from ΔFV or its mutants by thrombin (human) (UniProt P12259). Nature of the assay: cell-based or functional assay.
UniProt P12259, sequence (P12259 other isoform, or with tags, fused parts or gaps mutant limits assumed): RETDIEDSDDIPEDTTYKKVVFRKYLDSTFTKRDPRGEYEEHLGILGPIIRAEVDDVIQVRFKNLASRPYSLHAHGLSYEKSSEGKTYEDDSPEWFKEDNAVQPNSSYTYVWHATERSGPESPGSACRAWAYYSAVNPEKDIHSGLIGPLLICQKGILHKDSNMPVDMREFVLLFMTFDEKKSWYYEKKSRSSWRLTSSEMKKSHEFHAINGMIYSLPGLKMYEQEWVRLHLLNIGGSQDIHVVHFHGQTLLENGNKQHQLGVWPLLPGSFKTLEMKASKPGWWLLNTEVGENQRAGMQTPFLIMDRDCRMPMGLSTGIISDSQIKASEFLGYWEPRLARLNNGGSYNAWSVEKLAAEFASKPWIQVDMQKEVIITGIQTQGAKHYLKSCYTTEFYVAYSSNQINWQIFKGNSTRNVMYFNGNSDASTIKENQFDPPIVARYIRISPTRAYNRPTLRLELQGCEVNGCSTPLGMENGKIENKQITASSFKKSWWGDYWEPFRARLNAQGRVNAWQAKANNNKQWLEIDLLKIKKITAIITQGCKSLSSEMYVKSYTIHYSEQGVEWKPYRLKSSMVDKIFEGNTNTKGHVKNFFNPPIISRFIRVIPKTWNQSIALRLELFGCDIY

As to “FVaH derived from ΔFV multipoint mutant ED/EDD (E96, D102, E108, D111 and D112 to Ala) (from UniProt P12259 29-737)”, the inhibition of ΔFV activity (prothrombinase function, thrombin generation) is 98%.
